Results from patent US20240261427A1, “LINKERS, DRUG LINKERS AND CONJUGATES THEREOF AND METHODS OF USING THE SAME” (ProfoundBio US Co., priority 2021, published 2024).

System: Hela cells
Assay: Flow cytometry binding to Hela cells
Format: cell-based, human
Conditions: transfection supernatant, FIG. 6
Protocol: The binding activity of the antibodies to Hela cells (ATCC® CCL-2, provided by COBIOER) and to RPTEC/TERT1 cells (ATCC® CRL-4031, provided by COBIOER) was tested by flow cytometry using the transfection supernatants. Briefly, target cells were digested with 0.02% EDTA-2Na, centrifuged at 1500 rpm for 3 mins, and resuspended with PBS. After counting, the cells were added to a 1.5 ml centrifuge tube with 1×10^6 cells per tube, centrifuged at 1500 rpm for 5 minutes, and the supernatant was discarded. Then all the operations were carried out on an ice bath. 100 μL of transfection supernatant was added to each 1.5 ml centrifuge tube. Blank cells, blank cells plus secondary antibody, medium and HEK293 supernatant were set up as the controls. The reaction was performed on an ice bath for 1 hour. Then the cells were pelleted and washed twice with PBS. The secondary antibody, goat anti-Human IgG (PE, abcam, ab98596), was diluted (1:200) and added using 100 μL per tube. The reaction was performed on an ice bath for 1 hour in the dark. The cells were pelleted again and washed twice with PBS, resuspended in 300 μL PBS, and FL2 fluorescence readings were measured by cytometry. The results were analyzed by FlowJo™10 software.
Anti-FOLR1 antibody binding to Hela and RPTEC/TERT1 cells was tested by FACS. The study was carried out as described above. […]

B1: F40: anti-FOLR1 antibody clone; "Clone F40 has a different HCDRs and LCDRs, and with different HFR and LFR" (antibody, V domains shown)
VH: EVQLLESGGGVVQPGRSLRLSCAASGFTFSSYAMHWVRQAPGKGLEWVAVISYDGSNKYYADSVKGRFIISRDNSKNTVYLQMNSLRAEDTAVYYCARPTYVFTYTGSSFDYWGQGTQVTVSS
VL: DIQVTQSPSSLSASLGDTVSITCRASRGLTDSVAWYQQKPGQAPKLLIYAASTLQSGVPSRFGGSGSGSYFTLTITSLQPEDVATYYCQNYKSAPWTFGQGTKVEIK
Question: B1 was tested. Which Hela cell binding did it give?
Answer: weakly positive
